{"source": "paper doi:10.1101/2024.10.02.616235", "about": "“Mechanism of DNA entrapment by the MukBEF SMC complex and its inhibition by a viral DNA mimic” (bioRxiv, 2024)", "key": {"[1]": {"target": "the molecule itself", "assay": "cryo-EM structure; E. coli MukEF 1 μM mixed with 4 μM gp5.9 in 20 mM Tris, 200 mM NaCl, 0.5 mM TCEP, 0.05 % β-octyl glucoside, pH 7.4, on ice"}, "[2]": {"target": "the molecule itself", "assay": "cryo-EM structure; wild-type P. thracensis MukBEF dimers 150 nM with nicked plasmid pFB526 and 5 mM ATP, 10 mM MgCl2, pH 7.0, optionally with Na3VO4 or BeSO4/NaF; datasets pooled"}}}
{"protein": "T7 gp5.9, purified from insect cells (natural protein, bacteriophage T7, bacteriophage T7 gp5.9; histidine tag removed with 3C protease; Used as 'gp5.9 dimers' in SEC; source: Hi5 insect cells, purified (Talon, 3C cleavage, HisTrap, MonoQ)) MSRDLVTIPRDVWNDIQGYIDSLERENDSLKNQLMEADEYVAELEEKLNGTS", "values": [{"measurement": "stoichiometry N", "setting": "[1]", "result": 2}]}
{"protein": "P. thracensis MukE as subunit of wild-type MukBEF (natural protein, Photorhabdus thracensis, Photorhabdus thracensis MukE; the MukE chain of m14; source: E. coli BL21-Gold(DE3), co-expressed as MukBEF from pFB403, purified) MSSTHIEQFMPVKLAQALANSLFPELDSQLRAGRHIGIDDLDNHAFLMDFQEQLEEFYARYNVELIRAPEGFFYLRPRSTTLIPRSVLSELDMMVGKILCYLYLSPERLANQGIFTSQELYEELISLADEGKLMKFVNQRSSGSDLDKQKLQEKVRTTLNRLRRLGMVYFLPNNNNKFTITEAVFRFGADVRSGDDPREIQLRMIRDGEAMPVEGSLSLDDSENDETPDNSAEGAGDEQP", "values": [{"measurement": "stoichiometry N", "setting": "[2]", "result": 2}]}
